# Test results published in patent US20250355002A1.
# Target: recombinant cryptic HDGFL2 with C-terminal glycine serine linker and 6-HisTag (human) (UniProt Q7Z4V5)
# Test: MSD sandwich ELISA on HeLa overexpression lysates; mouse IgG isotype control in place of the capture antibody
# Chain of UniProt Q7Z4V5 (Q7Z4V5 other isoform, or with tags, fused parts or gaps limits assumed): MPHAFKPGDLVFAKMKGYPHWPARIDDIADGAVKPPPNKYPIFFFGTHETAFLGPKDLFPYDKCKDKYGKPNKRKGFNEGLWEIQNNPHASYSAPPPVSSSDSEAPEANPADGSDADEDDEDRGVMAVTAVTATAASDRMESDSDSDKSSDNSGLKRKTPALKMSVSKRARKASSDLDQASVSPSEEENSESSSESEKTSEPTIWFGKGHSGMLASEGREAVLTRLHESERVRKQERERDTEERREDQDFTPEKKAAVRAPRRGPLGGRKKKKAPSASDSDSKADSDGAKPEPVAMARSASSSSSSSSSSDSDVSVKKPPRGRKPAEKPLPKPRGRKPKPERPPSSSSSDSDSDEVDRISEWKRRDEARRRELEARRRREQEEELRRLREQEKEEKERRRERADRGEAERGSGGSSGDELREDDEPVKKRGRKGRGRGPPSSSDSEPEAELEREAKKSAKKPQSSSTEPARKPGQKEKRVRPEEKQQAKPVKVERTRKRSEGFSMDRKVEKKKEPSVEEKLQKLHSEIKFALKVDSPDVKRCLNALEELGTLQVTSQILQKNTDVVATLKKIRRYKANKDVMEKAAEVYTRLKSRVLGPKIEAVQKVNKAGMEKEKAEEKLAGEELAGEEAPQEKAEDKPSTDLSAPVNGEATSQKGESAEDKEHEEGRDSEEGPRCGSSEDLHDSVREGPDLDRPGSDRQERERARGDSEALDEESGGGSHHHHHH
substance,measurement,value
mouse IgG isotype control (for the capture antibody),ratio of cryptic/WT HDGFL2 lysate MSD signal,1
